Experimental data from the supplement of paper PMC9170038.

Test system: MS2 coat protein
Assay: apparent KD of MS2 coat protein; designed switch direction (-1 OFF switch, 1 ON switch): -1; higher = weaker reporter binding
Outline: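 Three titration conditions were used: no input, 200 uM small-molecule ligand, and an oligonucleotide input. In each, SNAP-549-labelled MS2 coat protein was raised from 0.7 or 1.5 nM, doubling, to 3 µM over designed RNA switches transcribed on Illumina chips by stalled E. coli RNA polymerase. Curve fits of normalised cluster fluorescence gave values whose per-design median over clusters is the apparent KD.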

[1] = input ligand: microRNA oligo, concentration not stated
[2] = Eterna round: R95, input ligand: FMN 200 uM
[3] = Eterna round: R95, input ligand: microRNA oligo, concentration not stated
[4] = Eterna round: R95, input ligand: none

Row | Sequence | apparent KD of MS2 coat protein (input ligand: FMN 200 uM) | apparent KD of MS2 coat protein [1] | apparent KD of MS2 coat protein (input ligand: none) | apparent KD of MS2 coat protein [2] | apparent KD of MS2 coat protein [3] | apparent KD of MS2 coat protein [4]
1 | GUAAUUAAUGUAGGAUAUGCAAGGCGAACCUAAGCAGAAGGACAUGAGGAUCACCCAUGUAAUGCGGUCUGCGUACAGAUCGCU [salish99_ExNG1_r4_007] (Eterna round: R96, puzzle: Exclusion NG 1) | 47.8 nM | 13.2 nM | 24.2 nM | – | – | –
2 | GUAAUUAAUGUAGGAUAUGCAAGGCGAACCUAAGCAGAAGGACAUGAGGAUCACCCAUGUAUUGCGGUCUGCGUUCAGUUCGCU [salish99_ExNG1_r4_011] (Eterna round: R96, puzzle: Exclusion NG 1) | 9.41 nM | 6.39 nM | 10.2 nM | – | – | –
3 | GUACAGGUAGGAUAUCGAUACAAGAACAUGAGGAUCACCCAUGUGGGUCGAUUUUCGAAGCGAGAAGGACCAAAUG [Rixeatenso] (puzzle: Exclusion 5) | – | – | – | 406 nM | 132 nM | 145 nM
4 | GUAGAGUAAGGAUAUGGAGAAUAGGAUAGAAUGGUUAGAAUCUAGAAGGUACAUGAGGAUCACCCAUGUAAUGU [Excluse me!!!! 9 - Jieux - Exclusion 4] (puzzle: Exclusion 4) | – | – | – | – | 21.2 nM | –
5 | GUAGAGUCAGGAUAUACAAGAUCGAAAGAUCGAAGAUUUAUACAUGAGGAUCACCCAUGUAGAAGGGACUCUAC [ChP 11-04-2015 #4] (puzzle: Exclusion 2) | – | – | – | – | 12.4 nM | –
6 | GUAGAGUCAGGAUAUACAGAAAGUGGCUGGAAAACAGUGGCACAUGAGGAUCACCCAUGUAGAAGGGACUCUAC [ChP 11-04-2015 #1] (puzzle: Exclusion 2) | – | – | – | – | 84.3 nM | –
7 | GUAGAGUCAGGAUAUACGAGAUCGAUAGAUCGGCGAUCCAAACAUGAGGAUCACCCAUGUAGAAGGGACUCUAC [Mat - Exclusion 2 - Eli Mod - D4] (Eterna round: R97, puzzle: Exclusion 2) | 1160 nM | – | 41.6 nM | – | – | –
8 | GUAGGGUCAGGAUAUACUGGCUGAGGGAUGUAUUGUAGUUGGUAGAAGGGACAUGAGGAUCACCCAUGUAAGUA [JR_Exclu4_Sub057] (puzzle: Exclusion 4) | – | – | – | – | 33.2 nM | –
9 | GUAGUGACUCGAGGAUAUCCCGACUCCUGGUCAGGAGAAGGCGACGUCAUAGCACAUGAGGAUCACCCAUGUCUUACACAUACG [Eternabot solution 32] (Eterna round: R96, puzzle: Exclusion NG 1) | 25.6 nM | 19.5 nM | 23.9 nM | – | – | –
10 | GUAUGUGAGAGAGGAUAUCGUGUACAAAGUACACGAGAAGGCUUCACAUGAGGAUCACCCAUGUACCGAGGUGAAACACCUUGA [Omei Exc(NG)1 Bv9] (Eterna round: R96, puzzle: Exclusion NG 1) | 1870 nM | 298 nM | 423 nM | – | – | –
11 | GUAUGUUAUGAGGAUAUCGGUGAACAUACACAUCGAGAAGGCAUGACAUGAGGAUCACCCAUGUCAAGGAUGAC [Exclusion 6 - B - 18:d] (puzzle: Exclusion 6) | – | – | – | – | 24.9 nM | –
12 | GUCAAACAUGAGGAUCACCCAUGUGAGGAUAUUUAGGAUAGGAUAUGACUACUACUCCGAAGAAGGCACUCGGG [Eternabot (L1) Solution 7] (Eterna round: R97, puzzle: Exclusion 1) | 102 nM | – | 38.5 nM | – | – | –
13 | GUCACAUGGACAUAGGAUCACAUGAGGAUCACCCAUGUGACUAACAAGCUUUUUGUUCGUCUUAUGUCUAUGUGAAA [Stov1/16-B1] (Eterna round: R97, puzzle: Sensor, turn-off variant 1) | 13.5 nM | – | 11.6 nM | – | – | –
14 | GUCACUAGAGGAUAUACAAUGGUAUAUGAUCCUAGAGACAAACAUGAGGAUCACCCAUGUAGAAGGCUAGUAAU [Exclusion 2 - 3] (puzzle: Exclusion 2) | – | – | – | 23.8 nM | 178 nM | 123 nM
15 | GUCAGACGAGGAUAUGAUGUCAAAGACAUGAGGAUCACCCAUGUGAUCAAUUAAUUAAGAUCAGAAGGCGUCUGAC [E5/2-A3] (Eterna round: R97, puzzle: Exclusion 5) | 172 nM | – | 222 nM | – | – | –
16 | GUCAGCUCGUCAGGAUAUGCACAUGAGGAUCACCCAUGUAAGAUCAAGCUGCUUCGGCAGCAAGUGCAGAAGGGACGAGCUGAC [ENG2/9-B1] (Eterna round: R96, puzzle: Exclusion NG 2) | 161 nM | 229 nM | 140 nM | – | – | –
17 | GUCAGCUCGUGAGGAUAUACAUGAGGAUCACCCAUGUGAUCAAUAGCAGCUUCGGCUGCAAUAAUGUAGAAGGCACGAGCUGAC [ENG2/8-C] (Eterna round: R96, puzzle: Exclusion NG 2) | 60.5 nM | 76.2 nM | 144 nM | – | – | –

Row | Sequence | apparent KD of MS2 coat protein (input ligand: FMN 200 uM) | apparent KD of MS2 coat protein [1] | apparent KD of MS2 coat protein (input ligand: none) | apparent KD of MS2 coat protein [2] | apparent KD of MS2 coat protein [3] | apparent KD of MS2 coat protein [4]
18 | GUCAGCUCGUGAGGAUAUACAUGAGGAUCACCCAUGUGAUCAAUAGCAGCUUCGGCUGCAUUAAUGUAGAAGGCACGAGCUGAC [ENG2/5-A1] (Eterna round: R96, puzzle: Exclusion NG 2) | 61.8 nM | 22.2 nM | 152 nM | – | – | –
19 | GUCAGCUCGUGAGGAUAUACAUGAGGAUCACCCAUGUGAUCAAUAGCAGCUUCGGCUGCAUUAAUGUAGAAGGUACGAGCUGAC [ENG2/5-C1] (Eterna round: R96, puzzle: Exclusion NG 2) | 65.2 nM | 111 nM | 700 nM | – | – | –
20 | GUCAGCUCGUGAGGAUAUAUAUAUACAUGAGGAUCACCCAUGUUAGAUCAGCUUCGGCAGUAUAUAUAGAAGGCACGAGCUGAC [ENG2/15-A1] (Eterna round: R96, puzzle: Exclusion NG 2) | 345 nM | 78.9 nM | 87.6 nM | – | – | –
21 | GUCAGUAUAUAACAAGCAUACAUGAGGAUCACCCAUGUGCGCGGAAAGCGUUUCCGCGCAUAUCGUUCCUAGCUCGG [Eternabot (Original) Solution 14] (Eterna round: R97, puzzle: Sensor, turn-off variant 1) | 419 nM | – | 505 nM | – | – | –
22 | GUCAUCAAACAUGGGAUAAACAUGAGGAUCACCCAUGUAUACAAGUUUUUUGCUCGUCUUAUAAUAAGUUUGAUGAC [Antenna 6 - Jieux - Sensor, turn-off variant 1] (Eterna round: R97, puzzle: Sensor, turn-off variant 1) | 16.4 nM | – | 15.3 nM | – | – | –
23 | GUCAUCAAACAUGGGAUCAACAUGAGGAUCACCCAUGUUGACAAGUUUUUUGCUCGUCUUAUAAUACGUUUGAUGAC [Mod-Jx] (Eterna round: R97, puzzle: Sensor, turn-off variant 1) | 16.2 nM | – | 15.5 nM | – | – | –
24 | GUCCGGCGUGUAGGAUAUGGUUCCGUUUCGGUUCCAGAAGGACAUGAGGAUCACCCAUGUGCCUGUCGUCGGUCGUCACCGGGC [salish99_ExNG1_r04_220] (Eterna round: R96, puzzle: Exclusion NG 1) | 19.5 nM | 10.3 nM | 14.8 nM | – | – | –
25 | GUCGGGCGUGUCAGGAUAUGGUAGAGUGGUCGCGGCCAGAAGGGACAUGAGGAUCACCCAUGUUCCGUGGGCAG [BmEX4 C.11] (Eterna round: R97, puzzle: Brourd's mod of Exclusion 4) | 19 nM | – | 19.9 nM | – | – | –
26 | GUCGUACAUGAGGAUCACCCAUGUGAGGAUAUGAGUGGUGCUGCUAGGUAGUAUAGACUCAGAAGGCGCAUGAU [Malcxlusion 2 - Jieux - Exclusion 1] (Eterna round: R97, puzzle: Exclusion 1) | 250 nM | – | 91.5 nM | – | – | –
27 | GUCGUGAGACAGGAUAUCCAAUCUAAACACGAGGGAGAAGGGUCUACAUGAGGAUCACCCAUGUGGUCUCAAAA [Aonondiin] (puzzle: Exclusion 6) | – | – | – | – | 17.2 nM | –
28 | GUCGUGCAGCUUUGCUGUACGAGUACAUGAGGAUCACCCAUGUAGGAUAUGGUACGCUUUGCGUGCUAGAAGGAUAUGUGUAGG [salish99_ExNG3_r04_501] (Eterna round: R96, puzzle: Exclusion NG 3) | 49.3 nM | 41.7 nM | 44.3 nM | – | – | –
29 | GUCGUGCGGCUGUGCUGUACGAGUACAUGAGGAUCACCCAUGUAGGAUAUGGUUCGUUUUGCGUGCUAGAAGGGCGUGCGUUUU [Excl-NG3-LRO17] (Eterna round: R96, puzzle: Exclusion NG 3) | 17.9 nM | 17 nM | 21.4 nM | – | – | –
30 | GUGAAACAUGAGGAUCACCCAUGUGAGGAUAUGUUUUAGUAAUGAUGAAAGUAAAUCUACAGAAGGCACAAUGG [Mat - Mod of JL D70] (puzzle: Exclusion 1) | – | – | – | – | 77.9 nM | –
31 | GUGACCAUAGGAUAUACAUGAGGAUCACCCAUGUGCAAGUCGGAAGACCUGCGGUCAUGUAGAAGGAUGUAAUU [EX3 A.19] (Eterna round: R97, puzzle: Exclusion 3) | 18.3 nM | – | 20.9 nM | – | – | –
32 | GUGACUCAGCAGGAUAUACGCGCGAGUGCGUAAGUAGAAGGGUUGACAUGAGGAUCACCCAUGUAGAACCACAC [Eternabot (L2) Solution 18] (Eterna round: R97, puzzle: Exclusion 6) | 19.9 nM | – | 18.4 nM | – | – | –
33 | GUGCAAUGAGGAUAUACGUUGGUGGGCAUCUGUGUGCUCCUACAUGAGGAUCACCCAUGUAGAAGGCAUGUCAC [LRO-Excl2-19] (puzzle: Exclusion 2) | – | – | – | – | 11.7 nM | –
34 | GUGGUACAUGAGGAUCACCCAUGUUAGGAUAUCGCGUGAGGUAAAACUUACACACACACGAGAAGGGACGACAU (puzzle: Exclusion 1) | – | – | – | – | 64.4 nM | –
